According to patent US20250171534A1 (D2M BIOTHERAPEUTICS, published 2025):

Legend:
[1] = biological target: T1, LILRB3 expressed on cells (human, UniProt O75022 24-631); test: flow cytometry on 293T cells transiently expressing LILRB3, APC anti-human Fc; gMFI as fold to IgG staining
T1 construct: whole, on cells; Expressed with a GFP tag from the bought plasmid; also called human LILRB3; CHO-LILRB3

[2] = biological target: T2, LILRA2 expressed on 293T cells (UniProt Q8N149 24-483, limits assumed); test: flow cytometry on 293T cells transiently expressing LILRA2, APC anti-human Fc; gMFI as fold to IgG staining
T2 construct: whole, on cells; GFP-tagged, transient
T2 sequence (Q8N149 24-483 limits assumed): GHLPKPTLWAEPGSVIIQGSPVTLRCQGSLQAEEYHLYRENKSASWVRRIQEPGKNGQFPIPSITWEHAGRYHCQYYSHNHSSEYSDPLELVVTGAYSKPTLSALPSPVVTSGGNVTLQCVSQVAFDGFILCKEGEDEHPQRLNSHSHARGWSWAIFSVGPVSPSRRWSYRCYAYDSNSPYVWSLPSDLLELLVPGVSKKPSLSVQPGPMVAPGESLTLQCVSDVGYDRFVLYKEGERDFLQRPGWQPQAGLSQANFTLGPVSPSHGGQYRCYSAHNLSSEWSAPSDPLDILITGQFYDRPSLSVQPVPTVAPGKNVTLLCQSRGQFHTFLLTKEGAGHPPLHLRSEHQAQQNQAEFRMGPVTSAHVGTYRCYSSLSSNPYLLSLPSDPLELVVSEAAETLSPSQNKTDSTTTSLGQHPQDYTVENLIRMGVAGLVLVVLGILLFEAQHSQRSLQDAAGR

[3] = biological target: T3, human LILRB2 expressed on cells (human, UniProt Q8N423 22-597); test: flow cytometry, CHO-LILRB2 cells
T3 construct: In 293T cells it was expressed from pCMV3-LILRB2-GFP; also called CHO-LILRB2; Jurkat-LILRB2
T3 sequence (Q8N423 other isoform, or with tags, fused parts or gaps limits assumed): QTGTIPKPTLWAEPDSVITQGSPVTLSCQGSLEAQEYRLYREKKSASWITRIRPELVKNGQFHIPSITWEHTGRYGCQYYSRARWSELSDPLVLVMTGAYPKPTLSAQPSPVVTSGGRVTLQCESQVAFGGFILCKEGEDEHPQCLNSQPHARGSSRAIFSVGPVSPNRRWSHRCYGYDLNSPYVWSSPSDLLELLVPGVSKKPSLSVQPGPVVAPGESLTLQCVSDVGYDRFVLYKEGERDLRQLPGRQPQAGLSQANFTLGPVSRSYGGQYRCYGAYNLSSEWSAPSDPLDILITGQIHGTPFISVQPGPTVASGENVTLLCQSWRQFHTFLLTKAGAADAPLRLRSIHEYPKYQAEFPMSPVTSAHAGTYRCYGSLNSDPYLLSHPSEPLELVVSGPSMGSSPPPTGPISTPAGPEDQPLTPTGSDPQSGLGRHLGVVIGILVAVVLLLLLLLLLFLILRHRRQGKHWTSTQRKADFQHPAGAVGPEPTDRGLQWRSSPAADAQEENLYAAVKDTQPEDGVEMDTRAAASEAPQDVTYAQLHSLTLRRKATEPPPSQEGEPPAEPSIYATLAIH

[4] = biological target: T4, LILRB1-ECD-HIS (SinoBiological Cat #: 16014-H02H) (human, UniProt Q8NHL6 24-461); test: BLI epitope binning (Gator)
T4 construct: Bought protein; also called monomeric antigen LILRB1-ECD-HIS; not shown: His tag
T4 sequence (Q8NHL6 other isoform, or with tags, fused parts or gaps H02H H02H): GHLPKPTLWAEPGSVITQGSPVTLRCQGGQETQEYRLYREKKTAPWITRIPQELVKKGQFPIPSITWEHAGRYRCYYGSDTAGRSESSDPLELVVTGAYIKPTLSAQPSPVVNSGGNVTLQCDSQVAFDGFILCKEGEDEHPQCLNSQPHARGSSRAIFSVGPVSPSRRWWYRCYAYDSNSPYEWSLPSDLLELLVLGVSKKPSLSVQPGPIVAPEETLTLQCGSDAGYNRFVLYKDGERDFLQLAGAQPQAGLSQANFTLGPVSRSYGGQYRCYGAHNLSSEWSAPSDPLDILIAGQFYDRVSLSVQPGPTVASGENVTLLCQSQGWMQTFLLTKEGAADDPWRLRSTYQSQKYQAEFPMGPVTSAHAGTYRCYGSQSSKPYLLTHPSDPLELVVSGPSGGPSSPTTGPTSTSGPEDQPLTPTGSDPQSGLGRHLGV

[5] = biological target: T5, LILRA5 expressed on 293T cells (UniProt A6NI73 42-299, limits assumed); test: flow cytometry on 293T cells transiently expressing LILRA5, antibody 5 µg/mL, APC anti-human Fc; gMFI as fold to IgG staining
T5 construct: whole, on cells; GFP-tagged, transient
T5 sequence (A6NI73 42-299 limits assumed): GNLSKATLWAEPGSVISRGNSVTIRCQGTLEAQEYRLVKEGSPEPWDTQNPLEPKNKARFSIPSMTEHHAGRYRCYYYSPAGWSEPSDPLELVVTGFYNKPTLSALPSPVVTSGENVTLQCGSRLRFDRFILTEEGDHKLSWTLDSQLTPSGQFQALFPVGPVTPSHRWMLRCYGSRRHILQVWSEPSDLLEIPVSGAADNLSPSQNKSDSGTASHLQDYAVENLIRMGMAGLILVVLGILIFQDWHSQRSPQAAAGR

[6] = biological target: T3, human LILRB2 expressed on cells; test: flow cytometry, CHO-LILRB2 cells; remark: listed apart in the source
[7] = biological target: T6, LILRA3 expressed on 293T cells (UniProt Q8N6C8 24-439, limits assumed); test: flow cytometry on 293T cells transiently expressing LILRA3, APC anti-human Fc; gMFI as fold to IgG staining
T6 construct: whole, on cells; GFP-tagged, transient
T6 sequence (Q8N6C8 24-439 limits assumed): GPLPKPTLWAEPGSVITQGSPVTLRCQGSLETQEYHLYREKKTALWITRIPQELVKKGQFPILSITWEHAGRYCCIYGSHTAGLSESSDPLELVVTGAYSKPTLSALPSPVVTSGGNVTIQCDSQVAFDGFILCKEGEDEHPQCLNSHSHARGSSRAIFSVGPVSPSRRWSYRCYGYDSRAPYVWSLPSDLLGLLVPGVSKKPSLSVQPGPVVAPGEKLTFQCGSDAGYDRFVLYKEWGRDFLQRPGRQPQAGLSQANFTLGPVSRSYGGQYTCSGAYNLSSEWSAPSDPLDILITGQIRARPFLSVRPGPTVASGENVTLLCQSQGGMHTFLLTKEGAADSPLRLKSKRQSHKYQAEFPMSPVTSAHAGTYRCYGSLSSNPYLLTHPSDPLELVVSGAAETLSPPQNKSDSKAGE

[8] = biological target: T7, LILRB2-ECD-HIS (SinoBiological Cat #: 14132-H02H) (human, UniProt Q8N423 22-460); test: BLI epitope binning (Gator), monomeric antigen
T7 construct: Bought protein; also called monomeric antigen LILRB2-ECD-HIS; not shown: His tag
T7 sequence (Q8N423 other isoform, or with tags, fused parts or gaps H02H H02H): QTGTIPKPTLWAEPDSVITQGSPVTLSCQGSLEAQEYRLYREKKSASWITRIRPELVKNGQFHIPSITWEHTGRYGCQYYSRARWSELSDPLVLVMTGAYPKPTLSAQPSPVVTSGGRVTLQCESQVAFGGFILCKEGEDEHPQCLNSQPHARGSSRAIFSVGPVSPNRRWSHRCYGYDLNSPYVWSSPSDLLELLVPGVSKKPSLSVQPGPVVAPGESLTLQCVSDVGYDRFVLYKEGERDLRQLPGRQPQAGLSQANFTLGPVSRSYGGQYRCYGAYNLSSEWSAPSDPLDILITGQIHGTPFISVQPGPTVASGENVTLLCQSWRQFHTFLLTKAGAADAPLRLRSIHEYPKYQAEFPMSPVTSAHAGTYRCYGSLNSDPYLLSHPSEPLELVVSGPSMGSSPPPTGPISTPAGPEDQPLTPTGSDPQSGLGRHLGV

[9] = biological target: T8, human LILRB1 expressed on cells (human, UniProt Q8NHL6 24-650); test: flow cytometry on 293T cells transiently expressing LILRB1, APC anti-human Fc; gMFI as fold to IgG staining
T8 construct: In 293T cells it was expressed from pCMV3-LILRB1-GFP; also called CHO-LILRB1; Jurkat-LILRB1
T8 sequence (Q8NHL6 other isoform, or with tags, fused parts or gaps limits assumed): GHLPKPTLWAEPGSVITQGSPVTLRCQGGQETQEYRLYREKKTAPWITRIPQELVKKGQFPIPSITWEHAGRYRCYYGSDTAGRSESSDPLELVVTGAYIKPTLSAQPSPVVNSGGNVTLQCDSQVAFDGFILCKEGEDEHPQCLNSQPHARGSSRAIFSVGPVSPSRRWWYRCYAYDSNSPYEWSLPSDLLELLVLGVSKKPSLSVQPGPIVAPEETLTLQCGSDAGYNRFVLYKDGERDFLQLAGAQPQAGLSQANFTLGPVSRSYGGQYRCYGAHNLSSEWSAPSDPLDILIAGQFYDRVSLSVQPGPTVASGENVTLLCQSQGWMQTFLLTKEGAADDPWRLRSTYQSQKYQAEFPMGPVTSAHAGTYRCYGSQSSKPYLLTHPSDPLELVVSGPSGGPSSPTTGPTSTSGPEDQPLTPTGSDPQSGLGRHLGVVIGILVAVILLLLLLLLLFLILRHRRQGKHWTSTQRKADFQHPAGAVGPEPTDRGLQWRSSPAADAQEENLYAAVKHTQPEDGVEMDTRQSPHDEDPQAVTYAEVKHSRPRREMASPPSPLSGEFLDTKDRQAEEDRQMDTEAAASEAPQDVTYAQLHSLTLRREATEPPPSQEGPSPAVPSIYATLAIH

[10] = biological target: T9, LILRB5 expressed on 293T cells (UniProt O75023 24-590, limits assumed); test: flow cytometry on 293T cells transiently expressing LILRB5, APC anti-human Fc; gMFI as fold to IgG staining
T9 construct: whole, on cells; GFP-tagged, transient
T9 sequence (O75023 24-590 limits assumed): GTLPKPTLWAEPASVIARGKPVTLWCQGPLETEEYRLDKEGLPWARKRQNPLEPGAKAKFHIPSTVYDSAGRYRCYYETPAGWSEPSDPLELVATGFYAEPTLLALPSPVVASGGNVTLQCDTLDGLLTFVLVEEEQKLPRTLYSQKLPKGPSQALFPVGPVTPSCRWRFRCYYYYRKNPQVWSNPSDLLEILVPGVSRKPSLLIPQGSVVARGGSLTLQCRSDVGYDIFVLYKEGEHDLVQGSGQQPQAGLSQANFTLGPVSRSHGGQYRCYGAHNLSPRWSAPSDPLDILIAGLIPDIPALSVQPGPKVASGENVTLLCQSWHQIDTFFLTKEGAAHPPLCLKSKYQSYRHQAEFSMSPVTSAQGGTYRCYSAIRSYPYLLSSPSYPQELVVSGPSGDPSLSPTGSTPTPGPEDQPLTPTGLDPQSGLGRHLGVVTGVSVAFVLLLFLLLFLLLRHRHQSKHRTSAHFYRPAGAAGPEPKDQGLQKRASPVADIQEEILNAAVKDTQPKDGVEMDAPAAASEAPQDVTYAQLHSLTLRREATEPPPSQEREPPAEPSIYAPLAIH

[11] = biological target: T10, LILRA6 expressed on cells (human, UniProt Q6PI73 24-481); test: flow cytometry on 293T cells transiently expressing LILRA6, APC anti-human Fc; gMFI as fold to IgG staining
T10 construct: whole, on cells; GFP-tagged; also called human LILRA6; CHO-LILRA6
T10 sequence (Q6PI73 24-481): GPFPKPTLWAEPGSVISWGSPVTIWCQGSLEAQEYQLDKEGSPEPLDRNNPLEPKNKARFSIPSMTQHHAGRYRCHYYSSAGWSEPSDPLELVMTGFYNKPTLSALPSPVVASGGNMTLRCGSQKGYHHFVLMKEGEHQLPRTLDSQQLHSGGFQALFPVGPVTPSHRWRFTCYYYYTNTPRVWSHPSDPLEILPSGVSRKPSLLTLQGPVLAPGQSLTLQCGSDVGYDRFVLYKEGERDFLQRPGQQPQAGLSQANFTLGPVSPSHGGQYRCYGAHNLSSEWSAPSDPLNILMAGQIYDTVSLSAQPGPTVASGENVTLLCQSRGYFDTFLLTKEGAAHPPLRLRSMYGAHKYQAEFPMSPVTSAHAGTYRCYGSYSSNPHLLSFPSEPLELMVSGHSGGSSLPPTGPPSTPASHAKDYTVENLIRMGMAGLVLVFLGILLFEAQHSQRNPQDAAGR

- binding result [1]: no binding (tested: 5 µg/mL)
- binding result [2]: no binding (tested: 5 µg/mL)
- EC50 [3]: 0.042 µg/mL
- gMFI (max) [3]: 11800
- binding result [4]: no binding
- binding result [5]: binds
- EC50 (read off the curve) [6]: ~0.04 µg/mL
- binding result [7]: no binding (tested: 5 µg/mL)
- binding result [8]: binds
- binding result [9]: no binding (tested: 5 µg/mL)
- binding result [10]: no binding (tested: 5 µg/mL)
- binding result [11]: no binding (tested: 5 µg/mL)
B1: Anti-LILRB2 antibody 1E1(QE) (antibody, human IgG4 S228P, lambda, V domains shown)
VH: EVQLQQWGAGLLKPSETLSLTCAVYGGSFSGYYWSWIRQPPGKGLEWIGEINHSGSTNYNPSLKSRVTISVDTSKNQFSLKLSSVTAADTAVYYCARLPTRWVTTRYFDLWGRGTLVTVSS
VL: ESVLTQPPSVSGAPGQRVTISCTGSSSNIGAGYDVHWYQQLPGTAPKLLIYGNSNRPSGVPDRFSVSKSGASASLAITGLQAEDEADYYCQSFDNSLSAYVFGGGTQLTVLG
